# Reference: paper PMC11592472
# What was measured:
# [1] = biological target: equine LH/CGR trileucine mutant eLH/CGR-LAL (equine)
# [2] = biological target: equine LH/CGR trileucine mutant eLH/CGR-LLA (equine)
# [3] = biological target: equine lutropin/choriogonadotropin receptor, wild type (eLH/CGR-wt) (equine)
# [4] = biological target: equine LH/CGR trileucine mutant eLH/CGR-AAA (equine)
# [5] = biological target: equine LH/CGR trileucine mutant eLH/CGR-ALL (equine)
substance,measurement,setting,value
recombinant equine chorionic gonadotropin (rec-eCG) (from UniProt P01220 25-120; P08751 21-169) (ligand),EC50 of the cAMP response (HTRF) of transfected CHO-K1 cells stimulated with rec-eCG for 30 min at room temperature,[1],0.0143 µg/mL
same,EC50 of the cAMP response (HTRF) of transfected CHO-K1 cells stimulated with rec-eCG for 30 min at room temperature,[2],0.0197 µg/mL
same,EC50 of the cAMP response (HTRF) of transfected CHO-K1 cells stimulated with rec-eCG for 30 min at room temperature,[3],0.0185 µg/mL
same,EC50 of the cAMP response (HTRF) of transfected CHO-K1 cells stimulated with rec-eCG for 30 min at room temperature,[4],0.0352 µg/mL
same,EC50 of the cAMP response (HTRF) of transfected CHO-K1 cells stimulated with rec-eCG for 30 min at room temperature,[5],0.0046 µg/mL
